In patent US7592309B2, “Method of using a peptide having analgesic and antitumor activity from scorpion” (priority 2001, dated 2009):

Tests used:
Assay type in all cases: in vivo
S180 sarcoma solid tumor = assay: mouse S180 sarcoma solid tumor model, inhibitory rate of tumor weight; details: S180, dose 60.0 mg/kg weight (positive control)
Description: (§1) In mouse experimental tumor model, such as ehrlich ascites carcinoma and S180 entity tumor, the peptide derived from the scorpion or partial fragment, derivative or analogue thereof having analgesic and antitumor activity obtained in example 1,2 and 6 was injected subcutaneously in a dose of 0.1 mg/kg weight to 16.0 mg/kg weight for continuous seven days. […] For example, the peptide of the SDS-PAGE single band obtained in Example 1 was administrated at the dose of 0.639 mg/kg weight. […] The peptide derived from the scorpion or partial fragment, derivative or analogue thereof having analgesic and antitumor activity obtained in example 1,2 and 6 was administrated by stomach infusion in a dose of 0.1 mg/kg weight to 16.0 mg/kg weight for continuous ten days.

[1] = tested on: ehrlich ascites carcinoma; assay: mouse ehrlich ascites carcinoma model, rate of life prolonging
Description: as §1

[2] = tested on: writhing response of mouse (acetic acid writhing model); details: administered by stomach infusion
Description: (§2) The above samples were administrated by stomach infusion in a dose of 0.1 mg/kg weight to 16.0 mg/kg weight. […] In the mouse heat plate model, the above samples were administrated by intravenous injection in a dose of 0.1 mg/kg weight to 16.0 mg/kg weight. […] For example, the peptide of SDS-PAGE single band obtained in example 1 and 2 were injected intravenously at 0.6 mg/kg weight.

mouse heat plate model = mouse heat plate model (pain threshold); details: 0.6 mg/kg weight intravenously
Description: as §2

O=P1(N(CCCl)CCCl)NCCCO1 (stereo not drawn) [cyclophosphamide, reference compound]
inhibitory rate of tumor weight (S180 sarcoma solid tumor): 50.5%
rate of life prolonging ([1]; dose 60.0 mg/kg weight, subcutaneous injection (positive control)): 15.6%

B1: Example 2: peptide having analgesic and antitumor activity purified from homogenized scorpion by the processes of Example 1; SEQ ID NO: 1 (protein)
chain: VRDGYIADDKNCAYFCGRNAYCDDECKKNGAESGYCQWAGVYGNACWCYKLPDKVPIRVPGKCNGG
modifications: Scorpion
ED50 (median effective dose) [2]: 2.86 mg/kg weight
pain threshold raised in a rate of (mouse heat plate model; at 5 min): 16.5%
pain threshold raised in a rate of (mouse heat plate model; at 15 min): 145.7%
pain threshold raised in a rate of (mouse heat plate model; at 25 min): 219.1%
pain threshold raised in a rate of (mouse heat plate model; at 35 min): 219.1%
pain threshold raised in a rate of (mouse heat plate model; at 45 min): 177.6%
pain threshold raised in a rate of (mouse heat plate model; at 60 min): 32.4%
pain threshold raised in a rate of (mouse heat plate model; at 90 min): 14.9%
rate of life prolonging ([1]; stomach infusion, dose 0.213 mg/kg weight, ten days): 16.8%
rate of life prolonging ([1]; stomach infusion, dose 0.639 mg/kg weight, ten days): 31.5%
